{"source": "patent US10709762B2", "about": "“Use of M-CSF for preventing or treating myeloid cytopenia and related complications” (priority 2013, dated 2020)", "key": {"[1]": {"system": "PU.1 promoter activation in single PU.1 negative HSC", "assay": "Time-lapse video imaging of GFP-negative sorted HSC from PU.1-GFP mice", "type": "cell-based", "procedure": "Wherever possible our video microscopy protocols followed proposed guidelines^24. In detail, FACS sorted CD150+ CD34− KSLF HCS from wt C57/Bl6 or GFP-negative CD150+ CD34− KSLF HSC from PU.1-GFP reporter mouse^31 bone marrow were suspended in SCM supplemented with 100 U/ml penicillin and […] streptomycin, 20 ng/ml rSCF, 50 ng/ml rTPO+/−100 ng/ml rM-CSF and plated in Ibidi μ-slidesVI(0.4) (Biovalley SA, France). Time-lapse microscopy was performed using a Cell Observer system (Carl Zeiss Microscopy GmbH, Germany) at 37° C. and 5% CO2. Images were acquired every 10 minutes using 10× (A-plan 10×/0.45 Ph1) or 40× (Plan-Apochromat 40×/0.95 Korr M27) objectives in brightfield and fluorescence (GFP filters: EX BP 470/40; at 350 ms) with a COOLSNAP™ HQ2 monochrome camera (Photometrics) with a 2×2 binning and a metal halide 120W source for fluorescence illumination. For image analysis a matrix of 4×4 images was acquired for each time point. Images were stitched with AxioVision software (Carl Zeiss Microscopy GmbH, Germany) and processed with Fiji software^36 using a slight rolling ball subtraction of background and 1 pixel Gaussian blur. For background subtraction of brightfield images, the median of z-projection was subtracted from the time-lapse stack. Single cell tracking was performed with basic commands of ImageJ^37 and Fiji^36 software and with specific tracking plugin MTrackJ^38 in manual mode. Each cell was tracked manually frame-by-frame in the bright field channel and cross-controlled by two microscope specialists. Cells with non-standard morphology or size were rejected. The fluorescence signal was measured as the difference of maximum minus minimum intensity within a defined region of interest (ROI) around each cell. Cell properties and behaviour (cell division, cell death, position, fluorescence increase) were manually documented to build cumulated curves. R^39 and Excel (Microsoft Corporation) software was used to manage data and build graphics."}, "[2]": {"system": "endogenous PU.1 protein in single HSC", "assay": "Intra-splenic injection of CFSE-labelled HSC, PU.1 immunofluorescence", "type": "in vivo, mice", "settings": "M-CSF receptor deficient HSC", "procedure": "For analysis of HSC in vivo, 1500 to 7000 FACS sorted CD150^+ CD34^− KSLF HSC were stained 10 min at 37° C. with 3 μM CFSE (Invitrogen) in PBS/0.5% BSA, washed 3× in PBS/0.5% BSA and injected in 30 μl PBS (containing or not 1 μg of isotype control or AFS98 α-M-CSFR antibody^26 or 2 μM GW2580, 10 μM Ly29400, 10 μM PD98059 or 2 μM SU6656 inhibitors in 0.9% DMSO) into the spleen of anesthetized mice. After 24 h spleens were embedded in OCT (Tissue-Tek, Sakura) and frozen at −80° C. Cryostat sections (5 μm) were prepared from the entire organ, dried and fixed 10 min in 4% PFA/PBS at room temperature (RT) and every 10th section was further processed. After washes in PBS, slides were blocked for 1 hour at RT in PBS/2% BSA/1% Donkey serum/1% FCS/0.1% saponin, incubated for 36 h at 4° C. with anti-PU.1 polyclonal antibody (Santa Cruz) in PBS/0.05% saponin (1:50), washed and incubated with secondary Alexa 546-donkey-anti-rabbit antibody (Molecular probes) in PBS/0.05% saponin (1:500). All immunofluorescence samples were mounted with ProLong Gold DAPI antifade (Molecular probes) and analyzed by multifluorescent microscopy on a Zeiss Axioplan 2. All CFSE+ cells were analysed for PU.1 expression up to ≥30 or ≥50 cells as indicated. Cell counts and staining were verified by a second trained microscopist blinded to sample identity. […]"}}}
{"molecule": "M-CSF: recombinant murine macrophage colony stimulating factor from PeproTech, used in Example 1 (protein, UniProt P07141 33-552, looked up) Macrophage colony-stimulating …: KEVSEHCSHMIGNGHLKVLQQLIDSQMETSCQIAFEFVDQEQLDDPVCYLKKAFFLVQDIIDETMRFKDNTPNANATERLQELSNNLNSCFTKDYEEQNKACVRTFHETPLQLLEKIKNFFNETKNLLEKDWNIFTKNCNNSFAKCSSRDVVTKPDCNCLYPKATPSSDPASASPHQPPAPSMAPLAGLAWDDSQRTEGSSLLPSELPLRIEDPGSAKQRPPRSTCQTLESTEQPNHGDRLTEDSQPHPSAGGPVPGVEDILESSLGTNWVLEEASGEASEGFLTQEAKFSPSTPVGGSIQAETDRPRALSASPFPKSTEDQKPVDITDRPLTEVNPMRPIGQTQNNTPEKTDGTSTLREDHQEPGSPHIATPNPQRVSNSATPVAQLLLPKSHSWGIVLPLGELEGKRSTRDRRSPAELEGGSASEGAARPVARFNSIPLTDTGHVEQHEGSSDPQIPESVFHLLVPGIILVLLTVGGLLFYKWKWRSHRDPQTLDSSVGRPEDSSLTQDEDRQVELPV", "values": [{"measurement": "proliferation or survival advantage of cultured HSC (video-microscopy)", "setting": "[1]; culture in M-CSF", "result": "no proliferation or survival advantage"}, {"measurement": "PU.1+ cells developed versus control conditions", "setting": "[1]; end of the 24 h observation period (18 to 42 hours of culture)", "result": "over two-fold more PU.1+ cells"}, {"measurement": "commitment events of PU.1 activation occurred earlier", "setting": "[1]; in the presence of M-CSF versus control", "result": 8, "unit": "h"}, {"measurement": "rate of PU.1 activation events", "setting": "[1]; over the whole observation period", "result": "higher rate"}, {"measurement": "PU.1 activation in M-CSFR-/- HSC, M-CSF stimulated versus control recipients", "setting": "[2]", "result": "no higher activation of PU.1"}]}
